Assay results as given in the RNAGym collection of RNA variant scans (doi:10.1073/pnas.2313332121).

B1: TPR t1 (parent)
chain: GACCAAUCUGCCCUCAGAGCUCGAGAACAUCUUCGGAUGCAGAGGAGGCAGGCUUCGGUGGCGCGAUAGCGCCAACGUCCUCAACCUCCAAUGCAUCCCACCACAUGAUGAUGCCUGAAGAGCCUUGGUUUUUUG

Variants of: B1
Assay: polymerase ribozyme fitness, log enrichment relative to wild type (log ratio); higher = more active; in vitro selection for triplet polymerase activity
How it was run: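 Genotype fitness is the logarithm of its enrichment divided by wild-type enrichment, using inverse-variance-weighted averages of replicates. That logarithm is base 2. Enrichment was measured by Illumina sequencing of input and output libraries from one triplicate in vitro selection round, with frozen incubation at −7 °C, on PCR-built, transcribed mutant libraries of each subunit of a heterodimeric triplet polymerase ribozyme, retaining genotypes with ≥10 input reads and ≥1 read per output.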

Variant	polymerase ribozyme fitness (log ratio)
C62A U125G	-1.43
C62A U130A	-1.33
C62A U131A	-0.5
C62A U131A G135A	-2.64
C62A U132A	-0.682
C62A U132C	-0.866
C62G A84U A108G	-5.29
C62G A95U	-2.37
C62G A121U	0.647
C62G C73U A83G	-4.25
C62G C79U U81A C85A	-6.14
C62G C94U	-1.28
C62G C99U A121G	-4.31
C62G C101U	-1.28
C62G C115A	-1.81
C62G G93A	-1.76
C62G G93U	-2.74
C62G G117A U129G	-6
C62G U87A	-2.48
C62G U87C A111G	-3.32
C62G U106C U131A	-2.52

Variant	polymerase ribozyme fitness (log ratio)
C62G U129A	-3.98
C62G U131A	-1.42
C62U A68G C99U U133G	-6.26
C62U A74C C89A C104A U112C	-2.59
C62U A74U	-0.71
C62U A74U U78A	-0.615
C62U A84C G117C C124A	-2.09
C62U A84G C101A	-1.66
C62U A95C G113U G135A	-3.24
C62U A95U	-2.57
C62U A108G	-1.69
C62U A111U	-2.55
C62U A118G	0.164
C62U C72U U92C U96C	-2.18
C62U C73U	-0.0195
C62U C76U	-0.133
C62U C80G	-6.35
C62U C82U	1.12
C62U C89A C124A	0.0858
C62U C94U	-0.381
C62U C98G	-5.88

Variant	polymerase ribozyme fitness (log ratio)
C62U C104U A108C	-6
C62U C114G A121C G135A	-1.63
C62U C115G U129A	-3.05
C62U C124G	1.52
C62U G69C	-3.19
C62U G69C C102G U130G	-7.34
C62U G71U G120U	0.0266
C62U G77A U87A A111U G122U	-5.7
C62U G93C A105U	-3.5
C62U G93U U112G U129A	-3.65
C62U G110C	-3.93
C62U G113A	-0.93
C62U G113C C124A U133A	-2.07
C62U G117A U131A	-1.44
C62U G120U	-0.189
C62U G128C	-3.37
C62U G128C U133C	-2.74
C62U U78A U96C	-0.0957
C62U U78C	-0.402
C62U U78C C94A	-1.92
C62U U96A	-0.822

Variant	polymerase ribozyme fitness (log ratio)
C62U U109A G117U A119C	-7.11
C62U U112G C115A U126G	-2.54
C62U U116A G128A	-5.25
C62U U126G	-3.05
C62U U131G	-0.5
C62U U132A	-0.469
C62U U132C	-0.257
G63A	-0.907
G63A A66C	-2.96
G63A A66G	-1.9
G63A A74U A95U	-3.67
G63A A75G G122A G127U	-3.17
G63A A83G A90G C98G A105C	-7.87
G63A A83G U106A	-3.25
G63A A84U C115A U125G	-0.899
G63A A90C	-2.84
G63A A91G U129A	-3.01
G63A A105G	-3.92
G63A A121C G135A	0.83
G63A A121U	0.59
G63A C64U C73G C80U G93A C97U G117U	-6.14
